Experiment [1] addresses cynomolgus monkey IgE (in cynomolgus serum, Harlan Sera-Lab Ltd) (cynomolgus monkey). Briefly: capture ELISA, Test 2, Cyno 5. For orientation: An ELISA detects its analyte on a solid surface through an enzyme-linked reagent.
Experiment [2] shares this target. Briefly: capture ELISA, Test 1, Cyno 7.
Experiment [3] shares this target. Briefly: capture ELISA, Test 1, Cyno 5.
For experiment [4] the target is unchanged. Briefly: capture ELISA, Test 2, Cyno 1.
Experiment [5] shares this target. Briefly: capture ELISA, Test 1, Cyno 2.
The target is the same in experiment [6]. Briefly: capture ELISA, Test 1, Cyno 1.
Experiment [7] has the same target. Briefly: capture ELISA, Test 2, Cyno 2.
Experiment [8] shares this target. Briefly: capture ELISA, Test 1, Cyno 3.
For experiment [9] the target is unchanged. Briefly: capture ELISA, Test 2, Cyno 7.
The target is the same in experiment [10]. Briefly: capture ELISA, Test 2, Cyno 3.

In the case of E25 (antibody), the IgE concentration detected was found to be 252 ng/mL in experiment [1]; 0 ng/mL in experiment [2]; 232 ng/mL in experiment [3]; 146 ng/mL in [4]; 52 ng/mL in experiment [5]; 172 ng/mL in experiment [6]. Also, the IgE concentration detected turned out to be 104 ng/mL in experiment [7], 166 ng/mL in experiment [8], 0 ng/mL in experiment [9] and 135 ng/mL in experiment [10].

The values above are taken from patent US20090117124A1.
